Values quoted from earlier work as cited in patent publication US9545449B2, “Site-specific labeling and targeted delivery of proteins for the treatment of cancer” (Advanced Proteome Therapeutics Inc., priority 2012, dated 2017).

Conditions: binding to phosphatidylserine; from Thiagarajan and Tait, J. Biol. Chem. 265:17420-17423 (1990); read-out: Kd (affinity for PS)

B1: Annexin V: human annexin V (SEQ ID NO:1) (Accession P08758); phosphatidylserine-binding protein (protein, listed as Homo sapiens)
chain: MAQVLRGTVTDFPGFDERADAETLRKAMKGLGTDEESILTLLTSRSNAQRQEISAAFKTLFGRDLLDDLKSELTGKFEKLIVALMKPSRLYDAYELKHALKGAGTNEKVLTEIIASRTPEELRAIKQVYEEEYGSSLEDDVVGDTSGYYQRMLVVLLQANRDPDAGIDEAQVEQDAQALFQAGELKWGTDEEKFITIFGTRSVSHLRKVFDKYMTISGFQIEETIDRETSGNLEQLLLAVVKSIRSIPAYLAETLYYAMKGAGTDDHTLIRVMVSRSEIDLFNIRKEFRKNFATSLYSMIKGDTSGDYKKALLLLCGEDD
Kd: 1.7 nM
